Laboratory results: US20130210108

Target: malate dehydrogenase (MDH)

Row | Protein | MDH aggregation at 43 C for 15 minutes, PaPrx:MDH 1:1 (molecular chaperone activity after UV irradiation) | chaperone activity against the non-irradiated group | increase rate of OD650nm of MDH heated at 43 C (holdase chaperone activity)
1 | PA3529 protein (2-Cys peroxiredoxin of Pseudomonas aeruginosa PAO1), His-tagged, non-irradiated or gamma/UV-irradiated (protein) MSVLVGKKAPDFNVAAVLGNGEIVESFTLSEAIKGKYGLVFFYPLDFTFVCPSELIALDHRIPEFQARNVEVIGVSIDSHFTHNAWRNTPVDKGGIGAVKYTLAADTKHEIAKAYDVESDGGVAFRGAFLIDKEGVVRSQIVNDLPLGRNMDELLRLVDALQFHEEHGEVCPANWKKGDKGMTASPEGVAKYLAENASKL | as the UV irradiation time increased, the molecular chaperone activity increased regularly | Chaperone activity of Prx protein was three-fold increased by gamma irradiation at 15˜30 kGy, compared with the non-irradiated group | the lowest OD was observed at 30 kGy, indicating that chaperone activity was highest at 30 kGy
2 | PP1084 protein (3-Cys peroxiredoxin of Pseudomonas putida KT2440), His-tagged, non-irradiated or gamma-irradiated (protein) MSVLVGKKAPDFTVPAVLGNGEIVDSFNLASAIKGKYGLVFFYPLDFTFVCPSELIALDNRIPDFQARNVEVIGVSIDSHFTHNAWRNTPVNNGGIGQVKYTLAADMTHEICKAYDVESEGGVAFRGAFLIDTNGVVRSQIVNDLPLGRNMDELLRLVDALQFHEEHGEVCPANWKKGDKGMNASPEGVAAYLSENAGKL | – | Chaperone activity of Prx protein was three-fold increased by gamma irradiation at 15˜30 kGy, compared with the non-irradiated group | the lowest OD was observed at 30 kGy, indicating that chaperone activity was highest at 30 kGy
